Earlier results, collected in US8765467B2, “Multicellular compositions of pluripotent human embryonic stem cells and cancer cells” (Technion Research and Development Foundation Ltd., priority 2003, dated 2014).

Columns and labels:
[1] = test system: human B-lineage acute lymphoblastic leukemia (B-ALL); settings: human B-ALL engrafted within marrow of immunodeficient mice; literature (Eisterer et al 2002)
tumors = tumors grown in immunocompromised mice; literature (Folkman 2002)

B1: Endostatin (protein, UniProt P39060 1572-1754, looked up)
Endostatin: HSHRDFQPVLHLVALNSPLSGGMRGIRGADFQCFQQARAVGLAGTFRAFLSSRLQDLYSIVRRADRAAVPIVNLKDELLFPSWEALFSGSEGPLKPGARIFSFDGKDVLRHPTWPQKSVWHGSDPNGRRLTESYCETWRTEAPSATGQASSLLGGRLLGQSAASCHHAYIVLCIENSFMTASK
modifications: Endostatin
notes: antiangiogenic agent cited from the literature
- inhibitory effect [1]: did not exhibit any inhibitory effect
- anti-angiogenic activity (tumors): potent anti-angiogenic agent
